Assay results taken from US20240181022A1, “AMURINS LYSINS, AND LYSIN-ANTIMICROBIAL PEPTIDE (AMP) CONSTRUCTS ACTIVE AGAINST GRAM-NEGATIVE BACTERIA” (priority 2021, published 2024).
Converted amounts (≈) assume the structure as drawn. Where no end group is shown, it is not given here.

How the values were obtained:
K. pneumoniae = assay: Checkerboard synergy assay (FICI) against K. pneumoniae; assay type: cell-based, Klebsiella pneumoniae; conditions: K. pneumoniae HM-44
Procedure: Any known method to assess MIC may be used.
Checkerboards are constructed by first preparing columns of e.g., a 96-well polypropylene microtiter plate, wherein each well has the same amount of antibiotic diluted 2-fold along the horizontal axis. […] Bacteria are added to the drug combinations at concentrations of 1×10^5 […] in CAA, for example, with or without human serum or pulmonary surfactant. […] Summation fractional inhibitory concentrations (ΣFICs) are calculated for each drug and the minimum ΣFIC value (ΣFICmin) is used to determine the effect of the Chp peptide/antibiotic combination.
GN370 was further tested in combination with up to seven additional antibiotics (in addition to meropenem) against a variety of bacterial strains, including P. aeruginosa, A. baumannii, E. coli, E. cloacae, and K. pneumoniae. GN370 and the subject antibiotics were tested in a checkerboard assay format, and FICI values were determined, wherein ≤0.5 indicates synergy, >0.5-≤1 indicates additive; and >1 indicates indifferent.

P. aeruginosa = assay: microbe, parasite or virus in culture; conditions: Pseudomonas aeruginosa
P. aeruginosa AR-769 [1] = assay: Repeat dose study of AM1 in the rabbit pulmonary infection model; assay type: in vivo; conditions: for Log CFU change v. pre-treatment (at 6 hours) / Mean Bacterial Density in Lung ± SD / Survival: rabbit
A. xylosoxidans = assay: Serial passage resistance development study, A. xylosoxidans; assay type: cell-based, Achromobacter xylosoxidans; conditions: A. xylosoxidans, day 28
A. baumannii [2] = assay: MIC by broth microdilution against A. baumannii; assay type: cell-based, Acinetobacter baumannii
E. coli [3] = assay: GN370 time-kill assay, E. coli; assay type: cell-based, Escherichia coli; conditions: for Log10 CFU/mL: E. coli AR-128
Procedure: A kinetic analysis of GN370 bactericidal activity was performed using a time-kill assay format in which CFU reductions of each target organism (P. aeruginosa, K. pneumoniae, A. baumannii, E. coli, and E. cloacae) were measured over 24 hours at 37° C. […] Bactericidal activity was defined as CFU reductions of ≥3-log 10 CFU/mL as compared to the inoculum at the 24-hour time point. See Methods for Determining Bactericidal Activity of Antimicrobial Agents; Approved Guideline, NCCLS document M26-A, CLSI 1999 (Wayne, PA).

E. coli (ATCC 25922) = assay: microbe, parasite or virus in culture; assay type: cell-based, Escherichia coli
E. coli [4] = assay: MIC by broth microdilution against E. coli; assay type: cell-based, Escherichia coli
P. aeruginosa AR-769 [5] = assay: GN370 in the rabbit pneumonia model; assay type: in vivo, New Zealand White rabbits
Enterobacter aerogenes = assay: MIC by broth microdilution against Enterobacter aerogenes; assay type: cell-based; conditions: N 1
Procedure: (§1) MIC values were determined by broth microdilution against clinical isolates and resistant isolates from a wide range of bacterial species, including isolates from the CDC Antibiotic Resistance bank, including the GN ESKAPE pathogens and E. coli, including carbapenem-resistant Enterobacteriaciae, Acinetobacter, and Pseudomonas.

A. baumannii [6] = assay: MBEC against A. baumannii biofilm; assay type: cell-based, Acinetobacter baumannii; conditions: MDR and XDR A. baumannii (22)
E. cloacae (ATCC 13047) = assay: microbe, parasite or virus in culture; assay type: cell-based, Enterobacter cloacae
Salmonella senftenberg = assay: MIC by broth microdilution against Salmonella senftenberg; assay type: cell-based; conditions: N 1
Procedure: as §1

Burkholderia cepacia = assay: MIC by broth microdilution against Burkholderia cepacia; assay type: cell-based; conditions: N 9
Procedure: as §1

Serratia marcescens = assay: MIC by broth microdilution against Serratia marcescens; assay type: cell-based; conditions: N 9
Procedure: as §1

E. coli [7] = assay: MBEC against E. coli biofilm; assay type: cell-based, Escherichia coli; conditions: MDR and XDR E. coli (11)
[8] = AM1 1 mg/kg i.v. every 24 hours (n = 7)
[9] = AM1 5 mg/kg i.v. every 24 hours (n = 8)
[10] = Acinetobacter baumannii, AR Bank, N 41
[11] = Acinetobacter baumannii, Weill Cornell, N 26
[12] = Acinetobacter baumannii, all isolates, N 67
[13] = Escherichia coli, AR Bank, N 17
[14] = Escherichia coli, Weill Cornell, N 13
[15] = Escherichia coli, all isolates, N 30

## C[C@@H](O)[C@H]1C(=O)N2C(C(=O)O)=C(S[C@@H]3CN[C@H](C(=O)N(C)C)C3)[C@H](C)[C@H]12 [meropenem, reference compound]
K. pneumoniae
  FICI of the antibiotic with GN370: 0.5
P. aeruginosa
  MIC: 64 µg/mL (≈ 167 µM)

## MRLKMARRRYRLPRRRSRRLFSRTALRMHPRNRLRRIMRGGIRF [AM1]
P. aeruginosa AR-769 [1]; agent alone, intravenous, treatment from 6 hours post-infection
  mean bacterial density in lungs compared to the vehicle control group: moderate to no CFU/g reduction
P. aeruginosa AR-769 [1]; [8]
  Log CFU change v. pre-treatment (at 6 hours): 1.56 Log CFU
  Mean Bacterial Density in Lung ± SD: 9.02 ± 1.49 Log CFU/lung
  Survival: 0%
P. aeruginosa AR-769 [1]; [9]
  Log CFU change v. pre-treatment (at 6 hours): 1.80 Log CFU
  Mean Bacterial Density in Lung ± SD: 8.98 ± 1.47 Log CFU/lung
  Survival: 37.5%
A. xylosoxidans
  change in MIC over serial passage: no increase in the MICs

B1: GN370: lysin-AMP construct, SEQ ID NO: 149: MIDR, FIRL and NPTH moieties N-terminal to GN202 lysin (protein)
chain: MIDRFIRLNPTHGPRRPRRPGRRAPVRTSQRGIDLIKSFEGLRLSAYQDSVGVWTIGYGTTRGVTRYMTITVEQAERMLSNDIQRFEPELDRLAKVPLNQNQWDALMSFVYNLGAANLASSTLLDLLNKGDYQGAADQFPHWVNAGGKRLDGLVKRRAAERALFLEPLS
modifications: GN370 lysin
A. baumannii [2]; A. baumannii ATCC BAA 747 (Table 27)
  MIC: (MIC = 1 μg/mL)
A. baumannii [2]; A. baumannii ATCC BAA-747 (head of Table 19)
  MIC: 1 µg/mL
A. baumannii [2]; A. baumannii clinical and resistant isolates
  MIC90: 1 µg/mL
A. baumannii [2]; [10]
  MIC50: 1 µg/mL
  MIC90: 1 µg/mL
  MIC Range: 0.064 to 2 µg/mL
A. baumannii [2]; [11]
  MIC50: 1 µg/mL
  MIC90: 1 µg/mL
  MIC Range: 0.25 to 1 µg/mL
A. baumannii [2]; [12]
  MIC50: 1 µg/mL
  MIC90: 1 µg/mL
  MIC Range: 0.0625 to 2 µg/mL
E. coli [3]; 0.2x MIC, 24 hr
  Log10 CFU/mL: 8.4 Log10 CFU/mL
E. coli [3]; 1x MIC, 1 hr
  Log10 CFU/mL: 4.4 Log10 CFU/mL
E. coli [3]; 1x MIC, 3 hr
  Log10 CFU/mL: 2.5 Log10 CFU/mL
E. coli [3]; 2x MIC, 1 hr
  Log10 CFU/mL: 4.4 Log10 CFU/mL
E. coli [3]; 2x MIC, 3 hr
  Log10 CFU/mL: 2.2 Log10 CFU/mL
E. coli [3]; 5x MIC, 1 hr
  Log10 CFU/mL: 3.0 Log10 CFU/mL
E. coli [3]; E. coli, 37° C.
  concentration with bactericidal activity (≥3-log 10 CFU/mL reduction at 24 hours): ≥ 1 ×MIC
E. coli (ATCC 25922); E. coli (ATCC 25922)
  change in MIC over 28-day serial passage: No change
E. coli (ATCC 25922); E. coli ATCC 25922, target organism of serial passage study
  MIC: 0.5 µg/mL
E. coli [4]; E. coli AR-128
  MIC: (MIC = 0.25 μg/mL)
E. coli [4]; E. coli ATCC 25922 (head of Table 19)
  MIC: 0.5 µg/mL
E. coli [4]; E. coli clinical and resistant isolates
  MIC90: 1 µg/mL
E. coli [4]; [13]
  MIC50: 0.5 µg/mL
  MIC90: 1 µg/mL
  MIC Range: 0.125 to 1 µg/mL
E. coli [4]; [14]
  MIC50: 0.25 µg/mL
  MIC90: 0.5 µg/mL
  MIC Range: 0.064 to 4 µg/mL
E. coli [4]; [15]
  MIC50: 0.25 µg/mL
  MIC90: 1 µg/mL
  MIC Range: 0.0625 to 4 µg/mL
P. aeruginosa AR-769 [5]; GN370 at 3 mg/kg and 10 mg/kg alone or in addition to amikacin
  animals surviving until the end of the study: 100%
P. aeruginosa AR-769 [5]; amikacin-alone or GN370-alone
  decrease of mean bacterial densities in lungs vs vehicle controls: ~2.0 log10 CFU/g
Enterobacter aerogenes
  MIC Range: 1 µg/mL
A. baumannii [6]
  MBEC50: 1 µg/mL
  MBEC90: 2 µg/mL
  MBEC Range: 0.5 to 2 µg/mL
  Number of isolates at MBEC 0.5 μg/mL: 2
  Number of isolates at MBEC 1 μg/mL: 12
  Number of isolates at MBEC 2 μg/mL: 8
E. cloacae (ATCC 13047); E. cloacae (ATCC 13047)
  change in MIC over 28-day serial passage: ≤ 2 fold
E. cloacae (ATCC 13047); E. cloacae ATCC 13047, target organism of serial passage study
  MIC: 1 µg/mL
Salmonella senftenberg
  MIC Range: 2 µg/mL
Burkholderia cepacia
  MIC50: >64 µg/mL
  MIC90: >64 µg/mL
  MIC Range: >64 µg/mL
Serratia marcescens
  MIC50: 32 µg/mL
  MIC90: >64 µg/mL
E. coli [7]
  MBEC50: 0.5 µg/mL
  MBEC90: 2 µg/mL
  MBEC Range: 0.25 to 2 µg/mL
  Number of isolates at MBEC 0.5 μg/mL: 5
  Number of isolates at MBEC 1 μg/mL: 2
  Number of isolates at MBEC 2 μg/mL: 2
  Number of isolates at MBEC […]: 2
